Test results from the RNAGym collection of RNA variant scans (doi:10.1073/pnas.2313332121).

B1: TPR t1 (parent)
chain: GACCAAUCUGCCCUCAGAGCUCGAGAACAUCUUCGGAUGCAGAGGAGGCAGGCUUCGGUGGCGCGAUAGCGCCAACGUCCUCAACCUCCAAUGCAUCCCACCACAUGAUGAUGCCUGAAGAGCCUUGGUUUUUUG

Variants of: B1
Assay: polymerase ribozyme fitness, log enrichment relative to wild type (log ratio); higher = more active; in vitro selection for triplet polymerase activity
Summary of the method: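 Mutant libraries of both subunits of a heterodimeric triplet polymerase ribozyme were PCR-built, transcribed, and selected once in triplicate, with frozen incubation at −7 °C and capture of gel-excised extended constructs on streptavidin beads before RT-PCR. Illumina sequencing of input and output libraries was filtered to genotypes with ≥10 input reads and ≥1 read per output. Fitness is the logarithm of genotype enrichment over wild-type enrichment, using inverse-variance-weighted replicate averages. The logarithm is base 2.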

In order of rising “polymerase ribozyme fitness (log ratio)” value:
1. A16U G47C C49U G61C C82G C89U A91G C115A  -7.61
2. C15A U33C A83U C101G G117C  -7.47
3. G17C A18U C40U C56G C70G A108G A111U  -7.19
4. G17U G63A U81A G110C  -6.98
5. G17A C53U C89U C101A U109G  -6.85
6. C15G A43U C64A A84G C85G A90C U112G U132C  -6.82
7. G17A G69A C102U C114G U131G  -6.68
8. C15U A27C C85A G117C C124G G128A U129G  -6.66
9. A16U A29U U30A A41C C49G A90G G120C  -6.59
10. C15G G48A U78G C97U A111U  -6.43
11. C15G C70G A90G C114G  -6.41
12. C15U C34A G45C  -6.34
13. G17U G42U G45A G69C U81G C86A C94U C99A A121C  -6.32
14. C15G G113C  -6.27
15. C15U A46G G51A C56G U59C G71C U78G U92G C123U  -6.11
16. C15U C53G C64A C104A C124U  -6.1
17. C15G A66G G69C C89U  -5.99
18. C15G C22U A37G U38G G63C G110C  -5.93
19. A16U C34A U109G C123A U129G  -5.83
20. C15U G17A G19A U38G G69C A75U U92G U109C C124U U134G  -5.8
21. G17C A50C U81A C114U G120U  -5.67
22. C15U C56G G61U A66G C73U C94G C97G C98A U112G A119C G135C  -5.66
23. G17C C72U U78G U116A A119C G120A  -5.61
24. A16U A37C G71U A111U  -5.61
25. C15A U109A  -5.42
26. C15G C98U A111G  -5.41
27. G17A G48U G69C C88G  -5.4
28. C15G A46G G71A C88G  -5.35
29. C15U A16U G57A C82U U112A  -5.23
30. G17U G48A A50U G61C G93A U106A  -5.21
31. G17A C20A G61C A119U C124A  -5.19
32. G17C A46G U55C  -5.15
33. C15G A95U C98U  -5.14
34. G17C U129A  -5.13
35. G17U G47U  -5.05
36. G17A A90C C101A C114G  -5.04
37. G17A G63U A90C U112A  -5.03
38. C15U G63A C79A C97U U112G  -4.94
39. C15G A43U C49U A74G  -4.91
40. G17C C20A G63U  -4.87
41. G17U C70G  -4.78
42. A16G C49A A68G C73U  -4.78
43. A16U C20A C64U U87C U130C  -4.77
44. C15U G65A G69U U87G  -4.77
45. A16U C56U U87A A103U U112A  -4.76
46. A16U C73U G93C U96A  -4.76
47. A16U U92A A111C  -4.66
48. A16U A18U U133A  -4.63
49. A16U U59G G69A U96C  -4.5
50. A16G C49A C88A C99A C102U C114U  -4.49
51. C15G C56U A83U C115G C123A  -4.36
52. G17U G71A G135U  -4.32
53. G17C G35A C123G G128U  -4.31
54. G17U C49U G93A  -4.22
55. A16G G60A U81A G117U  -4.21
56. A16G G48A U126G  -4.19
57. G17A G61U C85A C97U  -4.18
58. A16U G47C G71U  -4.17
59. G17A G71U G122A  -4.15
60. G17A G48C  -4.15
61. C15U C62G C85A  -4.14
62. G17A G60U C97U  -4.13
63. C15U C62A C79A  -4.11
64. C15U U54A C80A  -4.07
65. G17U C70A C88A A90G  -4.06
66. A16G G60U G107U C124G  -4.06
67. A16U C56G C115A  -4.04
68. A16U G69U G71U G117C  -4.04
69. A16U G52U G117A U130C U131G  -4.01
70. A16U A41G U78G A100U  -3.98
71. C15U A16U G71A C115A  -3.96
72. C15G C62A  -3.96
73. G17A G61A C114G C124A  -3.95
74. C15G C49G G61A C85A G110A  -3.95
75. G17A G69C  -3.95
76. C15U G113U  -3.92
77. G17C G77U A91U C123A U132A  -3.88
78. G17U G63U U133A  -3.87
79. G17A C49G A50G U106A  -3.86
80. G17A G63U U133C  -3.8
81. A16C C56G G77U C115G  -3.78
82. C15G C73U G107U G117C  -3.77
83. G17A C53A A90G A95U  -3.77
84. A16G G47C C56U A74U A121G G128C  -3.74
85. C15G A50U  -3.73
86. G17A U116C  -3.7
87. A16G G77A C85G  -3.69
88. A16U G113A  -3.61
89. A16U A29U U54A G63U  -3.53
90. C15U C72A A83C C89U C97U  -3.4
91. C15U A37C G61C  -3.39
92. C15G C49U U78A U125G  -3.37
93. C15U G48A G57A C86A  -3.37
94. A16U C102A  -3.35
95. G17U A29G A37U U112G  -3.31
96. C15G G42C G60U C94U A118U  -3.25
97. A16U C56G U125A  -3.24
98. G17A A75G C89A A90G  -3.23
99. C15U C28A C72U C76G A121C  -3.19
100. G17A A46C  -3.18
101. C15U G52U G61A C98U U125A U131A  -3.15
102. C15A U54G A90U  -3.13
103. C15G C56G U87G U112G G113A C123G G135A  -3.08
104. G17A G71U  -3.07
105. G17U G63C  -3.04
106. A16G C73A A90C  -3.02
107. A16C C53U  -2.99
108. C15U A24G A41G C115U  -2.93
109. C15G A41G C104U  -2.92
110. C15G G71A  -2.92
111. A16U G42U C53G G71A G120A  -2.89
112. C15U G42U G120U G127C  -2.69
113. A16C C89U U106A  -2.64
114. A16C U87A  -2.49
115. A16C G42U G57C A118U  -2.43
116. G17U A37U G60A C82U  -2.4
117. A16G C70U C115A U125C  -2.39
118. C15U C28U A68G G110A  -2.39
119. C15A U78C  -2.38
120. C15U A24G A41G C73A C115U  -2.38
121. A16U C56A G69U G117U  -2.35
122. C15U G17U A74C U78G C80U C115A  -2.32
123. C15U G47U C49A C86A U106C  -2.3
124. A16C G120A  -2.28
125. A16U A50G U96A U112C G127C  -2.27
126. C15G U59G  -2.27
127. C15U C79A  -2.26
128. A16G G61C  -2.19
129. C15U G61A C82U C85A C86G  -2.18
130. C15U G63C  -2.18
131. C15G G47U U55C U78C C82U C86A G120U  -2.18
132. A16G A29G G44A U87G A121C  -2.16
133. A16G G47A  -2.15
134. A16U G110A  -2.07
135. A16U G17A G117A  -2.04
136. G17U C20G G52A G113A A119G  -2.03
137. A16U C82A  -2.02
138. C15G C73A  -2.02
139. C15G C62U C79A A95G G117U  -1.98
140. A16U C56A  -1.97
141. A16G G69U C73A C115U  -1.93
142. C15G A37U C56U C123A  -1.93
143. C15U A41G G57C C62U U112A G122A G135A  -1.87
144. A16C G52A  -1.81
145. A16U G47U G60U U112G  -1.75
146. G17A G120U  -1.62
147. C15U C56U G117C  -1.61
148. C15G U59G C123G U129G  -1.59
149. A16G C86U  -1.54
150. G17U G48U C115G G120A  -1.53
151. C15U C73U A74C  -1.46
152. C15G U112C  -1.42
153. A16G U54C  -1.39
154. G17A A91C G93C G120C U131C  -1.37
155. A16G C53G U87G U96A U112A  -1.33
156. A16U C89U  -1.23
157. C15U G120A  -1.08
158. C15U U132A  -0.984
159. G17U C49U C124G G127C  -0.942
160. C15G G63C U96C G117C U130G  -0.822
161. A16U U116C  -0.734
162. C15U G120U  -0.697
163. A16G A75U C123U  -0.477
164. A16U C124A  -0.305
165. G17A C53A C124G  -0.146
166. A16U A37U G69U U106C G120U  -0.0765
167. C15U G36A A121C  0.213
